B1: Vivid (VVD) truncated at the N-terminus by 36 residues, with an N-terminal 6xHis tag (domain or fragment, Neurospora crassa, UniProt Q9C3Y6 37-186, looked up)
chain: HTLYAPGGYDIMGYLIQIMNRPNPQVELGPVDTSCALILCDLKQKDTPIVYASEAFLYMTGYSNAEVLGRNCRFLQSPDGMVKPKSTRKYVDSNTINTMRKAIDRNAEVQVEVVNFKKNGQRFVNFLTMIPVRDETGEYRYSMGFQCETE
notes: Vivid (VVD), LOV photoreceptor of Neurospora crassa, wild type, first 36 amino acids deleted (VVD36); The plasmid came from B. R. Crane; The sample carries some self-oxidative damage (oxidised D82, Y87, F92, F159, N161 found in the aggregated pellet); also called VVD36; dark-VVD; not shown: His6, N-terminal, kept

Experiments:
[1] = biological target: Vivid (VVD) truncated at the N-terminus by 36 residues, with an N-terminal 6xHis tag (Neurospora crassa) (UniProt Q9C3Y6)
[2] = biological target: the molecule itself; assay: SDS-PAGE and Western blot of the aggregated pellet; purified VVD36 given a 5-min blue-light pulse, kept 24 h at 25°C in standard buffer (10% glycerol, 50 mM HEPES, 150 mM NaCl, 20 mM imidazole, pH 8), centrifuged; pellet run on SDS-PAGE and blotted against the 6xHis tag; with DTT present oligomer formation was limited

Row | Molecule | photoadduct mean lifetime of VVD with A. niger catalase at 2.34 uM (optical absorbance) [1] [s] | binding result [2]
1 | catalase from Aspergillus niger (from UniProt P55303 1-730) (enzyme) | 1100 | 
2 | B1 |  | binds

— paper PMC6054393, “Light induces oxidative damage and protein stability in the fungal photoreceptor Vivid” (PLoS ONE, 2018)
